Data published in the supplement of paper PMC9876800.

Tested on: peptide library, one residue held at a place counted from the S/T acceptor
Assay: relative phosphorylation of the sub-library (ratio to the mean residue at this position); human; higher = residue favoured
Summary of the method: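 Relative sub-library phosphorylation is a ratio to the mean residue at the same position. Purified recombinant kinases were incubated under kinase-specific conditions with biotinylated degenerate peptide sub-libraries, each fixing one residue at one position around a central Ser/Thr, using 50 μM peptide and 50 μM ATP spiked with γ-32P-ATP for 90 min. Spots captured on streptavidin membranes were phosphorimaged and quantified by densitometry.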

Sequence of CHEK2, construct: Full length (O96017 whole entry, looked up): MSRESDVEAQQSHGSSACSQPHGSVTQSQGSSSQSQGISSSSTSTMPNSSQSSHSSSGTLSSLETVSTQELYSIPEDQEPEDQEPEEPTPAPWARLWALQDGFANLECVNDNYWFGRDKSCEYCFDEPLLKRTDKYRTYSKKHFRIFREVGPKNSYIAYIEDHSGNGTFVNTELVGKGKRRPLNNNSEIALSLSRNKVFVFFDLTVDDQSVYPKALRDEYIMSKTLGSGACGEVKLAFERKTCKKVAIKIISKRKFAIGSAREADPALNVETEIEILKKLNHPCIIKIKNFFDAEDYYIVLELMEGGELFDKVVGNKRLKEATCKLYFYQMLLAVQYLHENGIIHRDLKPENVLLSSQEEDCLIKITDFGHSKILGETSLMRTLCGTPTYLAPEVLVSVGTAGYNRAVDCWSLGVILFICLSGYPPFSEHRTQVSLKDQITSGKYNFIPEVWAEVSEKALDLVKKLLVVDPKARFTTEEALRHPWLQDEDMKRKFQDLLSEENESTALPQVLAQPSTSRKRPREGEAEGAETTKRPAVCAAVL
Sequence of CIT, construct: aa1-449 (O14578 1-449, looked up): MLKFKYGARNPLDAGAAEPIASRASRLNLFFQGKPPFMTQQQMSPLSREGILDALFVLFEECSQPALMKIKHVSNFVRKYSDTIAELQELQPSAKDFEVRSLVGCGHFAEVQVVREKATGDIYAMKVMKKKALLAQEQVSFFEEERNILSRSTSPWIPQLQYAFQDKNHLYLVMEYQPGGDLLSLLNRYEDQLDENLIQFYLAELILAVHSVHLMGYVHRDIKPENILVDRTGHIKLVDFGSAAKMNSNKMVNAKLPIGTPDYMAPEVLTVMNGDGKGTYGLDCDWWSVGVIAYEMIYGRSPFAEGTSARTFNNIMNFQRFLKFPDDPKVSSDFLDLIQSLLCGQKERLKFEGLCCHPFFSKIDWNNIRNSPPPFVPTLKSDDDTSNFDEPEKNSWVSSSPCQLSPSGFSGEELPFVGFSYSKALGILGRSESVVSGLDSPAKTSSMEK

CHEK2, construct: Full length (from UniProt O96017)
relative phosphorylation
Conditions	at +1	at +2	at +3	at +4	at -1	at -2	at -3	at -4	at -5
A fixed	0.589	0.731	0.81	0.837	0.816	1.26	0.562	0.987	0.172
D fixed	0.317	0.397	0.484	0.53	0.702	0.276	0.1	0.367	0.236
E fixed	0.402	0.382	0.407	0.541	0.383	0.785	0.136	0.839	0.307
F fixed	1.88	1.06	1.33	0.985	0.809	0.672	0.197	0.895	1.42
G fixed	0.741	0.784	0.818	0.987	0.707	0.679	0.275	0.743	0.514
H fixed	0.892	1.43	1.05	1.27	1.21	1.01	0.614	0.953	0.619
I fixed	1.51	0.934	0.975	0.941	0.81	0.598	0.199	0.924	1.7
K fixed	1.02	1.12	1.16	1.33	1.71	1.53	2.26	1.63	0.694
L fixed	1.41	0.851	1.02	0.859	1.28	0.843	0.217	1.02	2.42
M fixed	1.5	0.978	1.04	0.929	1.15	1.37	0.256	1.17	1.55
N fixed	0.93	0.941	0.889	1.14	1.61	0.832	0.208	0.651	0.491
P fixed	0.389	0.946	0.956	1.04	1.06	0.219	0.177	0.548	1.03
Q fixed	0.877	0.801	0.857	0.945	0.84	1.71	0.543	1.09	0.815
R fixed	1.34	1.97	1.53	1.65	1.63	2.92	10.5	2.23	1.52
V fixed	1.04	0.875	0.848	0.731	0.777	0.621	0.205	1.1	1.39
W fixed	1.07	1.24	1.44	1.17	0.587	0.639	0.284	0.807	0.914
Y fixed	1.09	1.55	1.39	1.12	0.924	1.04	0.265	1.05	1.19
pThr fixed	0.96	1.06	0.653	0.586	0.354	0.477	0.214	0.662	0.472
pTyr fixed	0.529	0.489	0.659	0.575	0.603	0.4	0.178	0.574	0.725

CIT, construct: aa1-449 (from UniProt O14578)
relative phosphorylation
Conditions	at +1	at +2	at +3	at +4	at -1	at -2	at -3	at -4	at -5
A fixed	0.788	1.01	0.8	0.784	0.721	0.715	0.553	1	0.448
D fixed	0.453	0.586	0.789	0.886	0.385	0.254	0.176	0.422	0.299
E fixed	0.373	0.517	0.638	0.851	0.372	0.28	0.171	0.504	0.276
F fixed	1.34	1	1.37	0.882	0.778	0.406	0.259	0.622	0.767
G fixed	0.937	2.04	1.1	1.13	0.905	0.435	0.382	0.931	0.498
H fixed	1.24	1.3	1.67	1.15	1.75	0.874	0.797	0.997	0.804
I fixed	0.914	0.884	0.866	0.948	0.394	0.693	0.251	0.612	1.09
K fixed	0.779	0.694	0.781	0.858	2.2	3.1	1.76	2.77	1.75
L fixed	1.02	0.768	0.995	1.01	0.874	0.826	0.25	0.74	0.89
M fixed	1.14	0.77	0.889	1.03	0.888	0.88	0.303	0.801	0.603
N fixed	1.41	1.06	0.882	1.14	1.17	0.779	0.4	0.735	0.465
P fixed	0.461	1.36	1.23	1.43	1.39	0.42	0.739	0.978	0.631
Q fixed	1.15	0.762	0.931	1.04	0.969	1.03	0.7	0.924	0.72
R fixed	1.05	0.907	0.763	0.874	1.85	4.68	9.39	3.11	5.94
V fixed	0.734	0.86	0.816	0.805	0.506	0.838	0.299	0.683	0.523
W fixed	1.55	1.16	1.31	1.21	0.682	0.407	0.302	0.571	0.591
Y fixed	1.66	1.33	1.17	0.979	1.17	0.389	0.272	0.598	0.707
pThr fixed	0.466	0.609	0.878	1.12	0.349	0.323	0.259	0.491	0.405
pTyr fixed	0.784	0.65	0.802	0.925	0.34	0.333	0.226	0.395	0.554
